Here are results for two proteins from paper PMC4536007, “Modulation of the Activity of Mycobacterium tuberculosis LipY by Its PE Domain” (PLoS ONE, 2015).

This series deals with the molecule itself. The series is described as follows: SEC; […] (20 mM HEPES pH 7, 100 mM NaCl, 10% glycerol); […].

B1: LipY (enzyme)
chain: MVSYVVALPEVMSAAATDVASIGSVVATASQGVAGATTTVLAAAEDEVSAAIAALFSGHGQDYQALSAQLAVFHERFVQALTGAAKGYAAAELANASLLQSEFASGIGNGFATIHQEIQRAPTALAAGFTQVPPFAAAQAGIFTGTPSGAAGFDIASLWPVKPLLSLSALETHFAIPNNPLLALIASDIPPLSWFLGNSPPPLLNSLLGQTVQYTTYDGMSVVQITPAHPTGEYVVAIHGGAFILPPSIFHWLNYSVTAYQTGATVQVPIYPLVQEGGTAGTVVPAMAGLISTQIAQHGVSNVSVVGDSAGGNLALAAAQYMVSQGNPVPSSMVLLSPWLDVGTWQISQAWAGNLAVNDPLVSPLYGSLNGLPPTYVYSGSLDPLAQQAVVLEHTAVVQGAPFSFVLAPWQIHDWILLTPWGLLSWPQINQQLGIAA
notes: LipY, PE protein with a C-terminal triglyceride lipase domain, Mycobacterium tuberculosis; 45 kDa; full length (LipYΔPE ends at residue 437); also called full length LipY; not shown: His tag, C-terminal, kept
On to B1, for which the binding result is recorded as “binds”.

B2: PE domain of LipY (domain or fragment)
chain: MVSYVVALPEVMSAAATDVASIGSVVATASQGVAGATTTVLAAAEDEVSAAIAALFSGHGQDYQALSAQLAVFHERFVQALTGAAKGYAAAELANASLLQSEFASGIGNGFATIHQEIQRAPTALAAGFTQVPPFAAAQAGIFTGTPSG
notes: LipY, Mycobacterium tuberculosis, residues 1-149 (PE domain with the linker up to the cleavage site); not shown: His tag, C-terminal, kept
Regarding B2, the binding result is listed as “binds”.
